Assay results: patent publication US20240254229A1 (Molecular Partners, published 2024)

Tests used:
[1] = molecular target: T1, biotinylated extracellular domains of human CD123 (uniprot ID 26951), Fc format (human, UniProt P26951 19-305, biotinylated); test: ribosome display selection, crude extract HTRF
T1 construct: extracellular domain
T1 sequence (looked up): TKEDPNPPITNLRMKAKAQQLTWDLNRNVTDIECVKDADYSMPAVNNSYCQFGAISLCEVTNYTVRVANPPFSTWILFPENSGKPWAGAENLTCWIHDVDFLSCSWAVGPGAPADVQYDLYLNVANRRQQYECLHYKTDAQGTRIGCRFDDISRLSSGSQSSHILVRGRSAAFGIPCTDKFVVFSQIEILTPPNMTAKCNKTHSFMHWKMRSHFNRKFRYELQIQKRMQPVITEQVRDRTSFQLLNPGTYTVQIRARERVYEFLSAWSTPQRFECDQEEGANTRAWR

[2] = molecular target: T2, biotinylated extracellular domain of human CD33 (SEQ ID NO: 87), Fc and Avi tagged (human, UniProt P20138 18-259, biotinylated with BirA-GST (Avi tag)); test: SPR (ProteOn XPR36), target on GLC chip
T2 construct: also called hCD33; human target hCD33

[3] = molecular target: T3, biotinylated extracellular domain of human CD123 (SEQ ID NO: 88), Fc and Avi tagged (human, UniProt P26951 19-303, biotinylated with BirA-GST (Avi tag)); test: SPR (ProteOn XPR36), target on GLC chip
T3 construct: also called hCD123
T3 sequence: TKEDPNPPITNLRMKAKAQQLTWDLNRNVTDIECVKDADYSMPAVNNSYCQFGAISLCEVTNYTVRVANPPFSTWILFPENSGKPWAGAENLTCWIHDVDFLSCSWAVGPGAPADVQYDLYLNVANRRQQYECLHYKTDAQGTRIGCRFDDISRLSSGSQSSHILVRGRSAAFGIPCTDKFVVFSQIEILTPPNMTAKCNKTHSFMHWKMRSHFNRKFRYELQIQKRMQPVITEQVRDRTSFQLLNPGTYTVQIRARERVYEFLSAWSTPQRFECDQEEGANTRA

human serum albumin = molecular target: T4, human serum albumin (human, UniProt P02768 25-609); test: SPR (ProteOn XPR36), target on GLC chip
T4 construct: also called HSA; SA

[4] = molecular target: T5, extracellular domain of human CD70 (SEQ ID NO: 89), hCD70-Fc-trimer, ACRO Biosystems (human, UniProt P32970 52-193, chemically biotinylated where the biotinylated form was used); test: SPR (ProteOn XPR36), target on GLC chip, DARPin as analyte
T5 construct: also called human CD70-Fc-trimer; Bio.CD70
T5 sequence: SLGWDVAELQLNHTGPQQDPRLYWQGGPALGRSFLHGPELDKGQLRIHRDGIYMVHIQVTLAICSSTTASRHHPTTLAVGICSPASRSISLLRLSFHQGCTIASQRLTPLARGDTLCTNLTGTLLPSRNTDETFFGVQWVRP

[5] = molecular target: T6, human scCD3εγ (scCD3εγ_Avi-Bio) (human, biotin on the C-terminal Avi-tag (in vitro, BirA) where the biotinylated form was used); test: ribosome display selection, crude extract HTRF
T6 construct: Used for all SPR and HTRF results on human CD3; also called recombinant human CD3; human CD3
T6 chain: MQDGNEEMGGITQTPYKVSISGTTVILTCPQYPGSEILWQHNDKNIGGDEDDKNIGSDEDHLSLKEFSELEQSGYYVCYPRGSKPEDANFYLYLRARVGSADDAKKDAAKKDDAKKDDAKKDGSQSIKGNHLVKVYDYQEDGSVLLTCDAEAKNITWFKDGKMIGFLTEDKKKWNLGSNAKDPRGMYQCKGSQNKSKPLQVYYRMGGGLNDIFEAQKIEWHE

[6] = molecular target: T2, biotinylated extracellular domain of …; test: crude extract HTRF, 12 nM biotinylated hCD33
Description: The extract of each lysed clone was applied as a 1:900 dilution (final concentration) in PBSTB (PBS supplemented with 0.1% Tween 20® and 0.2% (w/v) BSA, pH 7.4) together with 12 nM (final concentration) biotinylated hCD33, 1:200 (final concentration) of anti-strep-D2 HTRF antibody-FRET acceptor conjugate (Cisbio) and 1:200 (final concentration) of anti-6His-Tb antibody FRET donor conjugate (Cisbio) to a well of 384 well plate and incubated for 90 minutes at RT. The HTRF was read-out on a Tecan M1000 using a 340 nm excitation wavelength and a 665±10 nm emission filter. […] An amino acid sequence of a selected ankyrin repeat domain that specifically bind to hCD33 are provided in SEQ ID NO: 15.

[7] = molecular target: T7, hCD123 (recombinant, construct not stated) (human, UniProt P26951 19-305, limits assumed); test: switchSENSE, CD33 and CD123 on one chip; monophasic
T7 construct: also called CD123 (Ligand 2)
T7 sequence (looked up): T1 sequence (looked up)
Description: (§1) The designed ankyrin repeat proteins: DARPin® protein #20, DARPin® protein #21, DARPin® protein #22, DARPin® protein #27, DARPin® protein #40 and DARPin® protein #41 were tested in a concentration of 0.16 and 64 nM (in a buffer PE140 containing 10 mM Na2HPO4/NaH2PO4, 140 mM NaCl, 0.05% Tween20, 50 μM EDTA, 50 μM EGTA) for binding against two ligands hCD33 and hCD123, which both were immobilized simultaneously to DNA nanolevers, on the surface, at a pre-defined ratio (2:1, CD33:CD123) and 10% density (100:50) on an ADP-48-1-0 chip, where 100% density 1000 receptors/μm2 (preincubated R1-B48-CD123 and G1-A48-CD33 (100 nM) diluted in cNL-48 (dark)). Briefly the following steps were performed: [0724] Conjugation. Amine coupling of the two ligands (CD33 and CD123) to the DNA nanolever (A48, B48, respectively) and purification of the conjugates using the proFIRE® solution (Dynamic Biosensors GmbH) at 25° C. [0725] Evaluation of all the combined affinity and avidity of all different proteins to both ligands attached on the surface of an ADP chip using a DRX+ instrument (dynamic BIOSENSORS). [0726] Statistical analysis (repeatability from 2 to 5 times) including regeneration of the chip surface every concentration analyzed and long dissociation times and data were fitted using a bi-exponential global fit.

[8] = molecular target: T8, hCD33 (recombinant, construct not stated) (human, UniProt P20138 18-259, limits assumed); test: switchSENSE, hCD33 and hCD123 co-immobilised 2:1; panel headed CD33
T8 construct: also called CD33 (Ligand 1)
Description: as §1

[9] = molecular target: T7, hCD123 (recombinant, construct not …); test: switchSENSE, hCD33 and hCD123 co-immobilised 2:1; panel headed CD123, column KD1; KD2 printed N.A.
Description: as §1

[10] = molecular target: T5, extracellular domain of human CD70 (SEQ …); test: SPR (ProteOn XPR36), target on GLC chip
[11] = molecular target: T3, biotinylated extracellular domain of …; test: SPR (ProteOn XPR36), target on GLC chip, DARPin as analyte
[12] = molecular target: T8, hCD33 (recombinant, construct not …); test: switchSENSE, CD33 and CD123 on one chip; monophasic
Description: as §1

[13] = molecular target: T7, hCD123 (recombinant, construct not …); test: switchSENSE, hCD33 and hCD123 co-immobilised 2:1; panel headed CD123, y axis kon
Description: as §1

[14] = molecular target: T8, hCD33 (recombinant, construct not …); test: switchSENSE, hCD33 and hCD123 co-immobilised 2:1; panel headed CD33, column KD1; KD2 printed N.A.
Description: as §1

T8 sequence (P20138 18-259 limits assumed): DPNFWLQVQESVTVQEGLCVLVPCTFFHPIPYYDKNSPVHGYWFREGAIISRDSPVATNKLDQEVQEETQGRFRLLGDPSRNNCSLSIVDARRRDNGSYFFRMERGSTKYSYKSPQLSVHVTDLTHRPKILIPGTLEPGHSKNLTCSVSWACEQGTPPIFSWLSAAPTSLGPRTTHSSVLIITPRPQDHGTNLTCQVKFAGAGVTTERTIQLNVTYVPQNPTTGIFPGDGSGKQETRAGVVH
T2 sequence (P20138 18-259 R69G): as the sequence (P20138 18-259 limits assumed) above, with R52G counted along it
T4 sequence (P02768 25-609 limits assumed): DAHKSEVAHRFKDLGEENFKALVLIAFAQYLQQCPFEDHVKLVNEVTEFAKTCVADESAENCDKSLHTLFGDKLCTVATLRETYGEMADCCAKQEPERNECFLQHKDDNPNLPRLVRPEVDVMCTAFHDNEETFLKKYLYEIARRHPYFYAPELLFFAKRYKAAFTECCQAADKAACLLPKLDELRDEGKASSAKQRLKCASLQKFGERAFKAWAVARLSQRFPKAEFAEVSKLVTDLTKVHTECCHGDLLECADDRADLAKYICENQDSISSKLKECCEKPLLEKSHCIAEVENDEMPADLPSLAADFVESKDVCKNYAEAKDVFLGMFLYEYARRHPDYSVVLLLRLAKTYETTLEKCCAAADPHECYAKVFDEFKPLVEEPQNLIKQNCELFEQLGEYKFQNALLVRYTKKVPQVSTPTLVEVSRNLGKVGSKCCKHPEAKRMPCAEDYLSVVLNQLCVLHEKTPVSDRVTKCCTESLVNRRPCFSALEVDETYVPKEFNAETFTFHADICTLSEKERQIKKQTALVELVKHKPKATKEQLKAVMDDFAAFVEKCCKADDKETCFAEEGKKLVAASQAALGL

B1: DARPin® protein #6 (designed binder)
chain: DLGKKLLEAARAGQDDEVRILMANGADVNALDWLGHTPLHLAAYEGHLEIVEVLLKNGADVNAIDDNNGFTPLHLAAIDGHLEIVEVLLKNGADVNAQDKFGKTAFDISIDNGNEDLAEILQKAA
notes: CD123-specific domain
binding result [1]: binds

B2: DARPin® protein #33 (designed binder)
chain: DLGYKLLQAAYDGQLDEVRILLKAGADVNAKDSRGQTPLHYAASIGHLEIVEVLLKAGADVNAKDDHGWTPLHLAAWSGHLEIVEVLLKAGADVNAQDQEGTTPADLAAVQGHQDIAEVLQKAA
notes: CD70-specific ankyrin repeat domain; not shown: N-terminal His-tag
binding result [2]: no binding (tested: 100 nM (highest concentration))
binding result [3]: no binding (tested: 100 nM (highest concentration))
binding result (human serum albumin): no binding (tested: 100 nM (highest concentration))
Kd [4]: 0.18 nM

B3: DARPin® protein #2 (designed binder)
chain: MRGSHHHHHHDLGQKLLEAAWAGQDDEVRELLKAGADVNAKNSRGWTPLHTAAQTGHLEIFEVLLKAGADVNAKDDKGVTPLHLAAALGHLEIVEVLLKAGADVNAQDSWGTTPADLAAKYGHEDIAEVLQKAA
notes: CD3-specific ankyrin repeat domain
binding result [5]: binds

B4: DARPin® protein #15 (designed binder)
chain: DLGDKLLLAATSGQDDEVRILLAAGADVNAKDYDGDTPLHLAADEGHLEIVEVLLKAGADVNAKDYSGSTPLHAAAAYGHLEIVEVLLKAGADVNAQDVFGYTPADLAAYVGHEDIAEVLQKAA
notes: CD33-specific domain; screened as crude extract of a His-tagged clone (vector pMPAG06)
binding result [6]: binds

B5: DARPin® protein #21 (designed binder)
chain: DLGKKLLEAARAGQDDEVRILMANGADVNALDWLGHTPLHLAAYEGHLEIVEVLLKNGADVNAIDDNNGFTPLHLAAIDGHLEIVEVLLKNGADVNAQDKFGKTAFDISIDNGNEDLAEILQKAAGSPTPTPTTPTPTPTTPTPTPTGSDLGKKLLEAARAGQDDEVRELLKAGADVNAKDKDGYTPLHLAAREGHLEIVEVLLKAGADVNAKDKDGYTPLHLAAREGHLEIVEVLLKAGADVNAQDKSGKTPADLAADAGHEDIAEVLQKAAGSPTPTPTTPTPTPTTPTPTPTGSDLGQKLLEAAWAGQDDEVRILLAAGADVNAKNSRGWTPLHTAAQTGHLEIFEVLLKAGADVNAKNDKRVTPLHLAAALGHLEIVEVLLKAGADVNARDSWGTTPADLAAKYGHGDIAEVLQKLA
notes: also called αCD123-Ni2C-αCD3
koff [7]: 0.06 s⁻¹
binding result [8]: no binding
Kd [9]: 2.2 nM

B6: DARPin® protein #34 (designed binder)
chain: DLGKKLLEAALEGQLDEVRELLKAGADVNAKDQEGYTPLHLAAALGHLEIVEVLLKAGADVNAKDSIGRTPLHLAAYKGHLEIVEVLLKAGADVNAQDLLGETPADLAAEQGHQDIAEVLQKAA
notes: CD123-specific ankyrin repeat domain; not shown: N-terminal His-tag
binding result [2]: no binding (tested: 100 nM (highest concentration))
binding result [10]: no binding (tested: 100 nM (highest concentration))
binding result (human serum albumin): no binding (tested: 100 nM (highest concentration))
Kd [11]: 8.6 nM

B7: DARPin® protein #22 (designed binder)
chain: DLGKKLLEAARAGQDDEVRELLKAGADVNAKDKDGYTPLHLAAREGHLEIVEVLLKAGADVNAKDKDGYTPLHLAAREGHLEIVEVLLKAGADVNAQDKSGKTPADLAADAGHEDIAEVLQKAAGSPTPTPTTPTPTPTTPTPTPTGSDLGDKLLLAATSGQDDEVRILLAAGADVNAKDYDGDTPLHLAADEGHLEIVEVLLKAGADVNAKDYSGSTPLHAAAAYGHLEIVEVLLKAGADVNAQDVFGYTPADLAAYVGHEDIAEVLQKAAGSPTPTPTTPTPTPTTPTPTPTGSDLGQKLLEAAWAGQDDEVRILLAAGADVNAKNSRGWTPLHTAAQTGHLEIFEVLLKAGADVNAKNDKRVTPLHLAAALGHLEIVEVLLKAGADVNARDSWGTTPADLAAKYGHGDIAEVLQKLA
notes: also called Ni2C-αCD33-αCD3
koff [12]: 0.01 s⁻¹
binding result [13]: no binding
Kd [14]: 15 nM
